Test results taken from patent CN115894704A (UNIV SICHUAN, dated 2023).

B1: Anti-EpCAM-VHH SEQ ID NO 5 (phage-displayed) (VHH)
VHH: DVQLVESGGGSVQAGRSLRLSCELSDYTWSTVCMGWFRQAPGKEREGVAVIYTRSGGTTYADSAKGRFTISRDNAKDTLYLQMDSLKPEDTAMYYCAAGPLYDGRCTYRSPAFHYWGQGTQVTVSS
notes: fusion to the phage coat protein is not described
B2: Anti-EpCAM-VHH SEQ ID NO 9 (phage-displayed) (VHH)
VHH: HVQLVESGGGSVQSGGSLRLSCAVSGYAYSSLAWFRQAPGKEREGVAALLTAIGGPTRTTYADSVKGRLAISQDHAKNTLYLQMSSLKPEDTAMYYCAAGRPAGTPRWLLLAPRDYNYWGQGTQVTVSS
notes: as for B1
B3: Anti-EpCAM-VHH SEQ ID NO 1 (phage-displayed) (VHH)
VHH: DVQLVESGGGSVQSGGSLRLSCAASGYTYRRYYMGWFRQAPGEQREGVAVINNDGRTNYADSVKGRFRISRDNAENTLHLEMNSLKPEDTAMYYCAATGNILPPMTAVPPLGRQWYPYWGRGTLVTVSS
notes: as for B1
B4: Anti-EpCAM-VHH SEQ ID NO 6 (phage-displayed) (VHH)
VHH: DVQLVESGGGSAQAGGSLRLSCAASGPTSSLRTMGWFRQASGKERERVAVIWDGRTTDYDDSVQDRFTISQDNAKSTVYLQMNTLKPEDTAMYYCAASPRIVPFASTYFQHWGQGTQVTVSS
notes: as for B1
B5: Anti-EpCAM-VHH SEQ ID NO 3 (phage-displayed) (VHH)
VHH: QVQLVESGGGSVQAGGSLRLSCVVSAYSAYTYKTMCMGWFRQAPGKEREGVAAIYRGGLNTYYADSVKGRFIISRDNAESTMYLQMNSLKPEDTAMYYCAADWLRGDDCNIGANFDYWGQGTQVTVSS
notes: as for B1
B6: Anti-EpCAM-VHH SEQ ID NO 8 (phage-displayed) (VHH)
VHH: EVQLVESGGDSVQAGGSLRLSCAASGYSPGSYCMGWFRQAPGKERERVAIIESRGTVTYVDSVKGRFTISKDNAKNTLYLQMNSLKPEDTAMYYCAASRPWSGVRCLHDKYDYWGQGTQVTVSS
notes: as for B1
B7: Anti-EpCAM-VHH SEQ ID NO 7 (phage-displayed) (VHH)
VHH: HVQLVESGGGSVQAGGSLKLSCAASGSIFSGSIFSRCGMRWYRQAPGKERELVSSTSKDGFTSYTDSVKGRFTISQDNANNTLYLQMSSLKTEDTAVYSCAAICAVGGYSLSTYTYWGQGTQVTVSS
notes: as for B1
B8: Anti-EpCAM-VHH SEQ ID NO 4 (phage-displayed) (VHH)
VHH: QVQLVESGGGSVQAGGSLRLSCVATGFTISRKCMGWFREAPGKKREVIATINTGSSSPYYADGVKGRFTISQDNAKNTVYLQMNSLKPEDTAMYYCAATKGVVVGTGYCGGPYVERPNSAYWGQGTQVTVSS
notes: as for B1
B9: Anti-EpCAM-VHH SEQ ID NO 2 (phage-displayed) (VHH)
VHH: HVQLVESGGGSVQSGGSLRLSCAASGYAVKNCMGWFRQAPGKEREGVAVINRNGITTYADSVKGRFTISQDKDKNTLDLQMNSLKPEDTAMYYCAATPTLLTIPARFLCDVRNPSGFTDWGQGTLVTVSS
notes: as for B1

Each binder was assayed against T1, EpCAM-camFc(人EpCAM与羊驼Fc重组蛋白) (human, UniProt P16422 24-265) (assay: phage ELISA, EpCAM-camFc coated, anti-M13 HRP).
T1 construct: Recombinant fusion of human EpCAM and alpaca Fc; not shown: alpaca Fc
T1 sequence (looked up): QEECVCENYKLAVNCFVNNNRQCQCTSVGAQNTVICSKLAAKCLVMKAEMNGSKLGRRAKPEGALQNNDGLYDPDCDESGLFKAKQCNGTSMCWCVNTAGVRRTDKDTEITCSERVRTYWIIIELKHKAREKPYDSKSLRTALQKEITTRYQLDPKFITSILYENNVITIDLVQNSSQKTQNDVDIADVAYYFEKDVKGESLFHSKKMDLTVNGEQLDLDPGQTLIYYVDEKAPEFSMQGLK

Binder | binding result
B1 | binds
B2 | binds
B3 | binds
B4 | binds
B5 | binds
B6 | binds
B7 | binds
B8 | binds
B9 | binds
